Data: patent publication WO2021251460A1 (dated 2021)

T1: human Glypican-1 (human, UniProt P35052 24-530)
T1 construct: Endogenous GPC1 on human cancer cell lines: BxPC-3 in the FACS and internalization assays; TE8, TE14, BxPC3, KP-2 and PK-8 in the ADC assay; also called GPC-1; GPC1
T1 sequence: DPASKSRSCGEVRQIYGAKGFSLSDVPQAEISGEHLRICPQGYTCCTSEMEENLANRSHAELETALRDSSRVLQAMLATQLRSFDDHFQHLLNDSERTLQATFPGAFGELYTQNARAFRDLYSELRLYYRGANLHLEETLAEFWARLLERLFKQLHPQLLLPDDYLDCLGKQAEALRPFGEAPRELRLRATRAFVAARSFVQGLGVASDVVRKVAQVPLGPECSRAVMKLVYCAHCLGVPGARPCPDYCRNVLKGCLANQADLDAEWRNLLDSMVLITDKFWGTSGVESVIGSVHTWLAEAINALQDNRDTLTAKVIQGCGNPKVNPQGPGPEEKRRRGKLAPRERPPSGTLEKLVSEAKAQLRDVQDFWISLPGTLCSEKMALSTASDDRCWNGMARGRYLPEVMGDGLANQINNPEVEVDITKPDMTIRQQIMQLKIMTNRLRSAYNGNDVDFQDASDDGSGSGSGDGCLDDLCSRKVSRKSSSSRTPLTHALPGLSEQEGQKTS

B1: biotin-labeled anti-GPC1 antibody 02b006 (antibody, mouse IgG2a, kappa, V domains shown)
VH: EVQLVESGGGLVKPGGSRKLSCAASGFTFSDYGMHWVRQAPEKGLEWVAYISSGSSTIYYADTVKGRFTISRDNAKNTLFLQMTSLRSEDTAIYYCVRHSYYNYDIGGYYAMDYWGQGTSVTVSS
VL: DIVLTQSPSSLSASLGERVSLTCRASQEISGYLSWLQQKPDGTIKRLIYAASTLDSGVPKRFSGSRSGSDYSLTISSLESEDFADYYCLQYASYPLTFGAGTKLEIKR
modifications: biotin-labeled (site not given)
notes: Detection antibody for GPC1 left on the cell surface in the internalization assay, read out with streptavidin-PE; also called anti-GPC1 mAb (biotin-labeled 02b006); K090-02b006
B2: anti-GPC1 monoclonal antibody (clone K090-01a033) (antibody, mouse IgG2a, kappa, V domains shown)
VH: QVQLKQSGPELVKPGASVKISCKASGYSFTGYYMHWVKQSPEKSLEWIGEINPSTGDTTYNQKFKAKATLTVDKSSSTAYMQLKSLTSEDSAVYYCAREKRDDGVFAYWGQGTLVTVSS
VL: DIVMSQSPKSMSMSVGERVALSCKASENVGTYVSWYQQKPEQSPKLLIYGASNRYTGVPDRFTGSGSATDFTLTISSVQAEDLADYYCGQSYSYPLTFGAGTKLELKR
notes: Mouse monoclonal antibody; mouse IgG2a kappa (MOPC173) was used as its isotype control; also called mouse anti-GPC-1 clone 01a033; mouse anti-human Glypican-1 mAb (01a033)
B3: GPC1-ADC (01a033) MMAE (antibody, mouse IgG2a, kappa, V domains shown)
VH: B2 VH
VL: B2 VL
modifications: MC-vc-PAB-MMAE on reduced interchain cysteine residues; DAR 3.7 per antibody; MC-vc-PAB-MMAE (maleimidocaproyl-valine-citrulline-p-aminobenzyloxycarbonyl-monomethyl auristatin E) on reduced interchain cysteine residues; DAR 3.7 per antibody
notes: also called GPC1-ADC (MMAE); αGPC1-CL-MMAE

Experiments:
[1] = target: T1, human Glypican-1; test: FACS on BxPC-3 cells pre-treated with GPC1-ADC (01a033) MMAE, streptavidin-PE detection
[2] = target: T1, human Glypican-1; test: FACS titration on BxPC-3 cells, FITC anti-mouse IgG secondary

| Binder | binding result [1] | binding result [2] |
| --- | --- | --- |
| B1 | binds |  |
| B2 |  | binds |
| B3 |  | binds |
